According to US8450284B2, “Coiled-coil lipopeptide helical bundles and synthetic virus-like particles” (Universitaet Zuerich, priority 2006, dated 2013):
Where “and” joins values, the source holds several entries; their conditions need not be identical. Equal values may be shown once. Ends that are not written are not given here.

Legend:
[1] = tested on: Rabbits; experiment: Immunization of rabbits, ELISA for antibodies binding the conjugate used for immunization (Table 1); type: in vivo, rabbit; conditions: 150 μg conjugate, ELISA on the immunogen; for log10 (Endpoint titers) 2°: after first booster (serum day 38); for log10 (Endpoint titers) 3°: after second booster (serum day 66), rabbits in groups of two, each group given one conjugate
Description: (§1) Rabbits (groups of two) were each immunized with 150 μg of one conjugate, reconstituted and equilibrated for at least 1 h at r.t. in either 400 μl PBS (10 mM sodium phosphate, 154 mM NaCl, pH 7.2), or with Freund's adjuvant (Freund's complete adjuvant (FA) for primary and Freund's incomplete adjuvant (FIA) for booster immunizations). Immunizations were performed on days 0, 28 and 56. Sera were collected on days 14, 38 and 66. The sera were analyzed by enzyme-linked immunosorbent assay (ELISA), to detect antibodies that bind to the conjugates used for immunizations.
(§2) ELISA microtiter-plates (Nunc Immunoplates Polysorb F96) were coated overnight with a 5 μg/ml solution of each antigen in PBS. The wells were then washed with PBS containing 0.05% Tween 20 (PBST) and blocked with PBS containing 5% skimmed milk powder for 1 h at r.t. After blocking, the wells were washed three times with PBST and incubated with serial dilutions of rabbit serum in PBS containing 0.05% Tween 20 and 0.5% skimmed milk powder (MPBST) for 2.5 h at r.t., followed by three washes with PBST. The plates were then incubated with alkaline phosphatase-conjugated mouse anti-rabbit IgG antibody (Sigma), diluted 1:20000 in MPBST for 1 h at r.t., washed again three times with PBST and incubated in the dark with a 1 mg/ml solution of p-nitrophenyl phosphate (Sigma) in substrate buffer (50 mM sodium carbonate buffer, 1 mM MgCl2, pH 9.6) at r.t. The absorbance was read after an appropriate time at 405 nm using a Bio-Rad Model 3550 microplate reader.

[2] = tested on: Rabbits; experiment: Immunization of rabbits, ELISA cross-reaction with the same antigen attached to a different LBB (Table 2); type: in vivo, rabbit; conditions: for Endpoint titers (log10) 3°: after second booster
Description: as §1
The specificity of each hapten specific immune response was also analyzed by ELISA (Table 2). Here the ability of antibodies elicited by each conjugate to cross-react with the same antigen attached to a different LBB was measured.
as §2

[3] = Far UV circular dichroism spectroscopy (CONTIN analysis, thermal denaturation); type: physicochemical
Description: Far ultraviolet circular dichroism (CD) spectra were measured at r.t. using a Jasco J-715 spectropolarimeter and a 0.1 cm path length quartz cell. Peptide 5 solution (50 μM) and lipopeptide 4 solution (35.7 μM) were prepared in TRIS buffer (10 mM TrisHCl, 90 mM NaCl, pH 7.4) and concentrations were determined by phosphate or amino acid analysis, as appropriate. Scan speeds of 10-100 nm/min, 1-2 second response times and a 1 nm spectral bandwidth were employed and spectra were collected at a minimum resolution of 0.5 nm. After subtraction of the blank, the spectral values were reported as mean residue ellipticity [deg. cm^2/dmol] and the lipid moiety was ignored when calculating the mean residue molecular weight.
CD spectra of low concentration samples of lipopeptide 4 (2-40 μM) were measured at 20° C. with a Jasco J-810 spectropolarimeter using a 1 cm path length quartz cell. Lipopeptide solutions were prepared in PBS (10 mM Na2HPO4, 90 mM NaCl, pH 7.4) and concentrations were determined by phosphate analysis. Scan speeds of 10 nm/min, 4 second response time and a 2 nm spectral bandwidth were employed and spectra were collected at a minimum resolution of 0.5 nm. Data were elaborated as described above.

[4] = far UV CD at room temperature, FIG. 6

## LBB6-LY-CH: conjugate of lipopeptide 6 with LY-CH-HMB (GGAVSKVLHLEGEVNKIKSALLSTNKAVVSLSNGVSVLTSKVLDLKNYIDKQC; also: conjugate of lipopeptide 6 with LY-CH-HMB)
[1]; two rabbits (a, b)
  log10 (Endpoint titers) 2°: 5.11
[1]; after primary immunization (serum day 14), two rabbits (a, b)
  log10 (Endpoint titers) 1°: 3.90 and 4.20
[2]; ELISA antigen LBB7-LY-CH
  Endpoint titers (log10) 3°: 5.41 and 5.71

## peptide 5: same peptide sequence as lipopeptide 4 but lacks the phospholipid and linker (GGAVSKVLHLEGEVNKIKSALLSTNKAVVSLSNGVSVLTSKVLDLKNYIDKQ; derived from RSV F glycoprotein)
[3]; [4]
  aperiodic structure content (CONTIN): 42%
  β-sheet content (CONTIN): 25%
[3]; far UV CD at room temperature, pH 7.4, FIG. 6
  α-helix content (CONTIN): 33%
[3]; peptide concentration 35 μM
  mid point of thermal denaturation transition: ~40 °C

## LBB7-LY-CH: conjugate of lipopeptide 7 with LY-CH-HMB (SGIKKEIEAIKKEQEAIKKKIEAIERMLQLTVWGIKQLQARVLAVERYLGDCG; also: conjugate of lipopeptide 7 with LY-CH-HMB)
[1]
  log10 (Endpoint titers) 3°: 4.41 and 4.11
[2]; ELISA antigen LBB6-LY-CH, after first booster
  Endpoint titers (log10) 2°: 5.01 and 4.71
[2]; ELISA antigen LBB6-LY-CH
  Endpoint titers (log10) 3°: 5.01

B1: LBB6-12: conjugate of lipopeptide 6 with peptide 12 (conjugate)
chain: GGAVSKVLHLEGEVNKIKSALLSTNKAVVSLSNGVSVLTSKVLDLKNYIDKQC
peptide: NCRKSIHIGPGRAFYTTGCG
modifications: cyclised or stapled
[1]
  log10 (Endpoint titers) 3°: 5.01 and 4.71

B2: LBB7-12: conjugate of lipopeptide 7 with peptide 12 (conjugate)
chain: SGIKKEIEAIKKEQEAIKKKIEAIERMLQLTVWGIKQLQARVLAVERYLGDCG
peptide: NCRKSIHIGPGRAFYTTGCG
modifications: cyclised or stapled
[1]; two rabbits (a, b)
  log10 (Endpoint titers) 2°: 4.41 and 4.11
[1]
  log10 (Endpoint titers) 3°: 4.41 and 4.11
[2]; ELISA antigen LBB6-12, after primary immunization
  Endpoint titers (log10) 1°: <1.70
